One assay relates to Fab397. The experiment in a line: Isothermal titration calorimetry (ITC), NANP repeat peptides to Fab397. Type of assay: binding, human. Conditions: for TΔS / ΔH / ΔS / No. of sites (N-value) / Kd: ITC, arithmetic mean ± SD, n = 4; for TΔS / ΔH / ΔS: Fab397, 25 °C; for No. of sites (N-value) / Kd: peptide in syringe, 8.9 μM Fab397 in cell, DPBS, 25 °C, single-site model. As to the method: Titrations were performed on a MicroCal Auto-iTC200 (GE Healthcare, Chicago, IL). Prior to the experiments, wild-type Fab397 was extensively dialyzed against Dulbecco's PBS (Thermo Fisher, Waltham, MA). […] The Fab and peptide concentrations were determined by UV absorbance at 280 nm and 205 nm. Molar extinction coefficients for the peptides at 205 nm were estimated using a previously published method. The titrations were all performed with peptides in the syringe and antibodies in the cell and consisted of 16 injections of 2.45 μL peptide at a rate of 0.5 μl/s […], with injection duration of 4.9 s, injection interval of 180 s, and reference power of 5 μCal. Experiments were conducted in quadruplet (N = 4) at 25 °C. Fitting of the integrated titration peaks was performed with Origin 7.0 software using a single-site binding model. The first data point was excluded from the fit as commonly done.
Data for sporozoite ELISA assay (N = 2) were fitted and plotted using GraphPad Prism, version 7.0. For mouse liver burden assay (N = 5 mice), data were compared for significance using a Mann–Whitney U test with p < 0.05 indicated a statistically significant difference. […] All statistical parameters and graphs for the mouse liver burden assay were calculated and plotted using R with the Hmisc and ggplot2 packages. Each ITC experiment was performed with four replicates (N = 4), and the data were reported as the arithmetic mean ± SD.
(In ITC the heat of successive injections is recorded.)

Another assay addresses Fab317. Further details: method as in PMID 29138320. The settings on record: Fab317 with NPNA3; cited from earlier work.
Assay [1] concerns the target T1, biotinylated NPNA3 peptide (Biotin-linker-NPNANPNANPNA-NH2) (Plasmodium falciparum, synthetic CSP …, reading uncertain).
T1 construct: not shown: biotin, N-terminal, kept
T1 chain: {Biotin-linker}-NPNANPNANPNA-NH2
The experiment in a line: BLI. The settings on record: both partners purified.

In assay [2] the target is T2, NPNA4 peptide (Ac-NPNANPNANPNANPNA-NH2) (Plasmodium falciparum, synthetic CSP …).
T2 construct: also called (NANP)4
T2 chain: Ac-NPNANPNANPNANPNA-NH2
The experiment in a line: ITC. Conditions: both partners purified.

Assay [3] addresses T3, NPNA8 peptide (Ac-NPNANPNANPNANPNANPNANPNANPNANPNA-NH2) (Plasmodium falciparum, synthetic CSP …).
T3 construct: also called (NANP)8
T3 chain: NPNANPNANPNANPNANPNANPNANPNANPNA
The experiment in a line: ITC. Conditions: both partners purified.

The target of assay [4] is T3, NPNA8 peptide …. Description: negative-stain electron microscopy. The settings on record: both partners purified.

Changes are numbered by the printed parent chain. * marks the point of attachment. Biotin = O=C1N[C@H]2[C@H](CS[C@H]2CCCCC(=O)*)N1; linker = not defined here

Consider `CC(=O)N[C@@H](CC(N)=O)C(=O)N1CCC[C@H]1C(=O)N[C@@H](CC(N)=O)C(=O)N[C@@H](C)C(=O)N[C@@H](CC(N)=O)C(=O)N1CCC[C@H]1C(=O)N[C@@H](CC(N)=O)C(=O)N[C@@H](C)C(N)=O` [NPNA2], for which, in the assay on Fab397, the TΔS was -5.859 ± 0.593 kcal/mol, the ΔH is -13.303 ± 0.556 kcal/mol, the ΔS is −19.7 ± 2.0 cal^−1·mol^−1·K^−1 and the “No. of sites (N-value)” value worked out at 1.25 ± 0.02.

With “NPNA3: NPNA3 peptide, bound by Fab317 in ref 29 ({Biotin-linker}-NPNANPNANPNA-NH2; reading uncertain; also: linker not given here)”, the Kd (as a rule, the concentration at which binding is half-saturated) on Fab317 is 78 ± 16 nM.

In the case of `CC(=O)N[C@@H](CC(N)=O)C(=O)N1CCC[C@H]1C(=O)N[C@@H](CC(N)=O)C(=O)N[C@@H](C)C(=O)N[C@@H](CC(N)=O)C(=O)N1CCC[C@H]1C(=O)N[C@@H](CC(N)=O)C(=O)N[C@@H](C)C(=O)N[C@@H](CC(N)=O)C(=O)N1CCC[C@H]1C(=O)N[C@@H](CC(N)=O)C(=O)N[C@@H](C)C(=O)N[C@@H](CC(N)=O)C(=O)N1CCC[C@H]1C(=O)N[C@@H](CC(N)=O)C(=O)N[C@@H](C)C(=O)N[C@@H](CC(N)=O)C(=O)N1CCC[C@H]1C(=O)N[C@@H](CC(N)=O)C(=O)N[C@@H](C)C(=O)N[C@@H](CC(N)=O)C(=O)N1CCC[C@H]1C(=O)N[C@@H](CC(N)=O)C(=O)N[C@@H](C)C(=O)N[C@@H](CC(N)=O)C(=O)N1CCC[C@H]1C(=O)N[C@@H](CC(N)=O)C(=O)N[C@@H](C)C(=O)N[C@@H](CC(N)=O)C(=O)N1CCC[C@H]1C(=O)N[C@@H](CC(N)=O)C(=O)N[C@@H](C)C(N)=O` [NPNA8], the “binding stoichiometry inferred from N-value” in the assay on Fab397 (ITC with Fab397, peptide:Fab ratio, or number of Fabs per peptide as worded) is “two Fabs bind per peptide”. In the assay with Fab397, this molecule displayed a TΔS of -30.024 ± 0.179 kcal/mol, a ΔH of -40.09 ± 0.143 kcal/mol, a ΔS of −100.7 ± 0.6 cal^−1·mol^−1·K^−1 and a Kd of 41 ± 3 nM. The “No. of sites (N-value)” value in the assay with Fab397 was 0.56 ± 0.01.

In the assay on Fab397, `CC(=O)N[C@@H](CC(N)=O)C(=O)N1CCC[C@H]1C(=O)N[C@@H](CC(N)=O)C(=O)N[C@@H](C)C(=O)N[C@@H](CC(N)=O)C(=O)N1CCC[C@H]1C(=O)N[C@@H](CC(N)=O)C(=O)N[C@@H](C)C(=O)N[C@@H](CC(N)=O)C(=O)N1CCC[C@H]1C(=O)N[C@@H](CC(N)=O)C(=O)N[C@@H](C)C(=O)N[C@@H](CC(N)=O)C(=O)N1CCC[C@H]1C(=O)N[C@@H](CC(N)=O)C(=O)N[C@@H](C)C(N)=O` [NPNA4] registered a TΔS of -9.884 ± 0.147 kcal/mol, a ΔH of -19.915 ± 0.102 kcal/mol, a ΔS of −33.2 ± 0.5 cal^−1·mol^−1·K^−1 and a Kd of 44 ± 3 nM. In addition, the “No. of sites (N-value)” value with Fab397 came to 1.14 ± 0.01.

B1: Fab311 wild type (Fab, V domains shown)
VH: QVQLVESGGGVVPPGRSLRLSCATSGFTFSNYGMHWVRQAPGKGLEWVAIIWYDGSRNFYAASVEGRFTISRDNSKNTLYLQMNSLRVEDTAVYYCARAAYYDTSGYGDYWGQGTLVTVSS
VL: QSVLTQPPSVSGAPGQTVTISCTGGSSNIGAGYDVHWYQQLPGTAPKLLIYGNINRPSGVPDRFSGSKSGTSASLAITGLQAEDEADYYCQSYDRRLSGSWVFGGGTKLTVL
Consider B1, for which the binding result in assay [1] was “binds”.

B2: Fab311 HW52A (Fab, V domains shown)
VH: B1 VH with W52A
VL: B1 VL
The molecule B2 had an other in assay [1] of 26%.

B3: Fab397 wild type (Fab, V domains shown)
VH: EVQLVKSGGGLVKPGGSLRLSCAVSGFTFTDAWMSWVRQAPGKGPEWVGRIKSNPDGGTTDYAAPVRGRFTISRDDSKNTLYLQMNNLKTEDTAVYYCITDRDFYRSGGSWGQGTLVTV
VL: DIVMTQSPLSLPVTPGEPASISCRSRQSLLYSNGDNYLDWYLQKPGQSPQLLIYLGSNRAPGVPDRFSGSGSGTDFTLKISRVEAEDVGVYYCMQTLQTPHTFGQGTKLEIK
Regarding B3, the binding result in assay [1] is reported as “binds”. Besides, the Kd in assay [2] came to 44 nM; in assay [3], 41 nM. Also, the dH in assay [2] was -19.9 kcal/mol; in assay [3] it was -40.1 kcal/mol. The stoichiometry N – broadly, the number of molecules, sites or subunits per partner or assembly – in assay [2] was 1.14; in assay [3], 0.56; in assay [4] it was 2.

B4: Fab397 HW33A (Fab, V domains shown)
VH: B3 VH with W33A
VL: B3 VL
In the case of B4, the binding result in assay [1] is “no binding (tested: 2000 nM)”.

B5: Fab397 LD30A (Fab, V domains shown)
VH: B3 VH
VL: B3 VL with D35A
In assay [1], B5 returned an other of 66%.

B6: Fab397 HR96A (Fab, V domains shown)
VH: B3 VH with R102A
VL: B3 VL
In turn, B6 returned an other in assay [1] of 77%.

B7: Fab397 LY32A (Fab, V domains shown)
VH: B3 VH
VL: B3 VL with Y37A
As to B7, the binding result in assay [1] is “no binding (tested: 2000 nM)”.

B8: Fab397 HD95A (Fab, V domains shown)
VH: B3 VH with D101A
VL: B3 VL
Take B8: in assay [1], the binding result is “no binding (tested: 2000 nM)”.

B9: Fab317 wild type (Fab, V domains shown)
VH: QMQLVESGGGVVQPGRSLRLSCTASGFTFSTYAMHWVRQSPGQGLQWVAVISYHSTNKYYEDSVRGRFTISRDNSKNTLYLQMNSLRAEDTAVYYCARDGYSSSFFDFWGQGTLVTVSS
VL: DIQMTQSPSTLSASVGDRVAITCRASQSISRWLAWYQQQPGKAPKLLMSGASVLESGVPSRFSGSGSGTEFTLTISSLQPDDFATYYCQHYNSYFVTFGQGTKVEIK
Molecule B9 displayed an other in assay [1] of 100%.

B10: Fab317 LW32A (Fab, V domains shown)
VH: B9 VH
VL: B9 VL with W32A
With B10, the other in assay [1] came to 20%.
